Source: publication PMC6310132

How the values were obtained:
Assay in all cases: SPR
[1] = biological target: rat organ of Corti AP2mu1, pRSET-A fusion protein (SPR and Figure 7A,B) (rat) (UniProt P84092)
[2] = biological target: N-ethylmaleimide-sensitive factor (NSF), pRSET-A fusion protein (mouse) (UniProt P46460)
[3] = biological target: trout saccular hair cell dopamine D1A4 carboxy terminus, pRSET-A fusion protein (trout)
[4] = biological target: trout saccular hair cell otoferlin C2F domain, pRSET-A fusion protein (trout)
[5] = biological target: trout saccular hair cell snapin, pRSET-A fusion protein (trout)

Sequence of N-ethylmaleimide-sensitive factor (NSF), pRSET-A fusion protein (mouse) (P46460 whole entry, the tested form may be a part): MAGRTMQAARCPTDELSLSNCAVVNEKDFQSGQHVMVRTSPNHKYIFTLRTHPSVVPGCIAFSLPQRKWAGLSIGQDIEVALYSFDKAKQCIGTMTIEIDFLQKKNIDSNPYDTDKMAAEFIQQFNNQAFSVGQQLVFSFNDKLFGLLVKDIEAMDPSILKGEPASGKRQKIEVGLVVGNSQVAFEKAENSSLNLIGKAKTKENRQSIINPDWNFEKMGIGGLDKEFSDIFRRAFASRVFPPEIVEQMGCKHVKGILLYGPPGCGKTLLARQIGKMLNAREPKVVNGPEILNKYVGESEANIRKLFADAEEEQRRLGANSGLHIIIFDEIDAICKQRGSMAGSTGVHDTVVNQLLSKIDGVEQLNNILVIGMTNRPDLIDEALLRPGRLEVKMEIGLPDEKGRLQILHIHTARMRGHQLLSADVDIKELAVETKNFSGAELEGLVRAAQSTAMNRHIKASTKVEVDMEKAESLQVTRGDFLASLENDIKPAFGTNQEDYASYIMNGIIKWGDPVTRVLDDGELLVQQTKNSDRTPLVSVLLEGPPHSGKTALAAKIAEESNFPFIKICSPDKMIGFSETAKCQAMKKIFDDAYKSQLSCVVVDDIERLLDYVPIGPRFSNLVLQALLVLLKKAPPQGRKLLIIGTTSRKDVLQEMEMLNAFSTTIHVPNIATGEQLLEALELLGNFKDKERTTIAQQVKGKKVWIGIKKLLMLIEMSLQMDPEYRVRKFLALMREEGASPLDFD

## rat organ of Corti otoferlin C2F domain, pRSET-A fusion protein used for SPR (domain or fragment)
[1]
  Kd: 129 nM
  koff: 0.00273 s⁻¹
  kon: 21200 M⁻¹ s⁻¹
[2]
  Kd: 2.29 nM
  koff: 0.00073 s⁻¹

## trout saccular hair cell snapin, pRSET-A fusion protein (domain or fragment)
[3]
  Kd: 26.9 nM
  koff: 0.00784 s⁻¹
[4]
  Kd: 23.4 nM
  koff: 0.00348 s⁻¹

## trout saccular hair cell otoferlin C2F domain, pRSET-A fusion protein (domain or fragment)
[5]
  Kd: 13 nM
  koff: 0.00407 s⁻¹

## trout saccular hair cell dopamine D1A4 carboxy terminus, pRSET-A fusion protein (domain or fragment)
[5]
  Kd: 14.6 nM
  koff: 0.00174 s⁻¹
